According to US20230322924A1 (Janssen / Centocor, published 2023):

B1: C33B916 (antibody, V domains shown)
VH: QVQLVESGGGVVQPGRSLRLSCATSGFTFSNYGMHWVRQAPGKGLEWVAVIWYVGSHKYYADSVKGRFTISRDNSKNTLYLQMNSLRAEDTAVYYCARDGSLCFDYWGQGTLVTVSS
VL: SYELTQPPSVSVSPGQTANISCSGVTLGYNYAYWYQQKPGQSPILVISQDTQRPSGIPERFSGSNSGNTATLTISGTQAMDEAAYYCQAWDITTVLFGGGTKLTVL
notes: OMNIMouse-derived anti-CD33 mAb; same V regions as C33B908; also called C33H256/C33L122; C33F554
B2: BLW-3B4 (antibody, V domains shown)
VH: QVQLQQSGPGLVKPSQTLSLTCAISGDSVFNNNAAWSWIRQSPSRGLEWLGRTYYRSKWLYDYAVSVKSRITVNPDTSRNQFTLQLNSVTPEDTALYYCVRGYSSSFDYWGQGTLVTVSS
VL: QSALTQPASVSGSPGQSITISCTGTSRDIGTYKFVSWYQQHPDKAPKVLLYEVSKRPSGVSSRFSGSKSGNTASLTISGLQAEDQADYHCCSYAGSGTLLFGGGTKLTVL
notes: OmniRat hybridoma supernatant: human V regions on rat constant regions; also called V regions cloned as CD3B313 (CD3H218/CD3L125)
B3: BLX-3G8 (antibody, V domains shown)
VH: QVQLQQSGPGLVKPSQTLSLTCAISGDSVFNNNAAWTWIRQSPSRGLEWLGRTYYRSKWLYDYAVSVKSRITVNPDTSRNQFTLQLKSVTPEDTALYYCSRGYSSSFDYWGQGTLVTVSS
VL: QSALTQPASVSGSPGQSITISCTGTSSNIGTYKFVSWYQQHPDKAPKVLLYEVSKRPSGVSSRFSGSKSGNTASLTISGLQAEDQADYHCCSYAGSGTLLFGGGTKLTVL
notes: OmniRat hybridoma supernatant: human V regions on rat constant regions; also called V regions cloned as CD3B317 (CD3H223/CD3L124)
B4: BLX-1F8 (antibody, V domains shown)
VH: QVQLQQSGPGLVKPSQTLSLTCAISGDSVFNNNAAWSWIRQSPSRGLEWLGRTYYRSKWLYDYAVSVKSRITVNPDTSRNQFTLQLKSVTPEDTALYYCSRGYSSSFDYWGQGTLVTVSS
VL: QSALTQPASVSGSPGQSITISCTGTSSDIGTYKFVSWYQQHPDKAPKVLLYEVSKRPSGVSSRFSGSKSDNTASLTISGLQAEDQADYHCCSYAGSGTLLFGGGTKLTVL
notes: OmniRat hybridoma supernatant: human V regions on rat constant regions; also called V regions cloned as CD3B314 (CD3H220/CD3L126)
B5: BLX-3F4 (antibody, V domains shown)
VH: QVRLQQSGPGLVKPSQTLSLTCAISGDSVFNNNAAWSWIRQSPSRGLEWLGRTYYRSKWLYDYAVTVKSRITVNPDTSRNQFTLQLTSVTPEDTALYYCARGYSSSFDYWGQGTLVTVSS
VL: QSALTQPASVSGSPGQSITISCTGTSSNIGTYKFVSWYQQHPDKAPKVLLYEVSKRPSGVSSRFSGSKSGNTASLTISGLQAEDQADYHCCSYAGSGTLLFGGGTKLTVL
notes: OmniRat hybridoma supernatant: human V regions on rat constant regions; also called V regions cloned as CD3B316 (CD3H222/CD3L124)
B6: BLW-2B4 (antibody, V domains shown)
VH: QVQLQQSGPGLVKPSQTLSLTCAISGDSVFNNNAAWSWIRQSPSRGLEWLGRTYYRSKWLYDYAVSVKSRITVNPDTSRNQFTLQLNSVTPEDTALYYCVRGYSSSFDYWGQGTLVTVSS
VL: QSALTQPASVSGSPGQSITISCTGTSRDIGTYKFVSWYQQHPDKAPKVLLYEVNKRPSGVSSRFSGSKSGNTASLTISGLQAEDQADYHCCSYAGSGTLLFGGGTKLTVL
notes: OmniRat hybridoma supernatant: human V regions on rat constant regions; also called V regions cloned as CD3B311 (CD3H218/CD3L123)
B7: BLW-2E6 (antibody, V domains shown)
VH: QVQLQQSGPRLVRPSQTLSLTCAISGDSVFNNNAAWSWIRQSPSRGLEWLGRTYYRSKWLYDYAVSVKSRITVNPDTSRNQFTLQLNSVTPEDTALYYCARGYSSSFDYWGQGTLVTVSS
VL: QSALTQPASVSGSPGQSITISCTGTSSNIGTYKFVSWYQQHPDKAPKVLLYEVSKRPSGVSSRFSGSKSGNTASLTISGLQAEDQADYHCCSYAGSGTLLFGGGTKLTVL
notes: OmniRat hybridoma supernatant: human V regions on rat constant regions; also called V regions cloned as CD3B312 (CD3H219/CD3L124)
B8: BLX-2E9 (antibody, V domains shown)
VH: QVQLQQSGPGLVKPSQTLSLTCAISGDSVFNNNGAWSWIRQSPSRGLEWLGRTYYRSKWLYDYAVSVKSRITVNPDTSRNQFTLQLNSVTPEDTALYYCARGYSSSFDYWGQGTLVTVSS
VL: QSALTQPASVSGSPGQSITISCTGTSSNIGTYKFVSWYQQHPDKAPKVLLYEVSKRPSGVSSRFSGSKSGNTASLTISGLQAEDQADYHCCSYAGSGTLLFGGGTKLTVL
notes: OmniRat hybridoma supernatant: human V regions on rat constant regions; also called V regions cloned as CD3B315 (CD3H221/CD3L124)

What was measured:
[1] = molecular target: T1, Cyno CD33 full length (cynomolgus monkey); experiment: flow cytometry on HEK293F cells expressing cyno CD33
T1 construct: also called cyCD33
Method: (§1) The purified antibodies were assessed for binding to stably transfected HEK293F cells expressing human CD33 or cyno CD33 (generation described above) along with the parental HEK293F as negative control. Cells were harvested from tissue culture flasks using non-enzymatic dissociation buffer (Thermo Scientific). The flasks were rinsed twice with PBS and dissociation buffer was added to the flask, and the flask was incubated for 10 minutes at 37° C. until the cells became non-adherent. The cells were centrifuged at 300 g for 5 minutes and resuspended at 1.0×10⁶ cells/ml in staining buffer (Becton Dickinson; Franklin Lakes, NJ). 50,000 cells/well of each cell type was plated in 50 μl of staining buffer in round bottom plates (Becton Dickinson). […] 100 μl staining buffer was added to all wells of each plate, the plates were spun at 300 g for 5 min, the buffer was removed, 200 μl staining buffer was added to all wells of each plate, the plates were spun at 300 g for 5 min, and the buffer was removed. 50 μl of 2 μg/ml of Goat-anti-human Fc AF647 secondary antibody (Jackson Immunoresearch; West Grove, PA) was added to all wells of the plates, and the plates were incubated for 30 min at 4° C. 100 μl staining buffer was added to all wells of the plates, the plates were spun at 300 g for 5 min, and the buffer was removed. 200 μl running buffer (running buffer is Staining buffer, 1 mM EDTA, 0.1% Pluronic Acid) was added to all wells of the plates, the plates were spun at 300 g for 5 min, and the buffer was removed. 30 μl running buffer containing Sytox Green live/dead dye (ThermoFisher) was added to all wells with cells and the plates were read on an iQue IntelliCyt flow cytometer. Cells were gated on forward vs. side scatter to eliminate debris, then on singlets and then on live cells which excluded the Sytox stain. Antibody binding was assessed by the mean fluorescence intensity in the AF647 channel.
(§2) The OmniMouse panel (8 mAbs total) was generated separately and characterized further for binding to cells.

[2] = molecular target: T2, Cyno CD33 ECD-HSA (cynomolgus monkey); experiment: ProteOn SPR, mAb captured on anti-human Fc, antigen as analyte
T2 construct: Cyno CD33 ECD fused to HSA and a six-histidine tag; also called C33W1
Method: (§3) The panel of mAbs was then further characterized for full affinity analysis as well as epitope binning. The binding of anti-CD33 mAbs to recombinant human CD33 ECD-HSA (C33W2) and cyno CD33 ECD-HSA (C33W1) was measured by ProteOn SPR (Bio-Rad). […] Different mAbs were captured on the anti-human Fc IgG surface at 0.25 or 0.5 μg/ml (160-300 RU) in vertical ligand orientation, with the 6th ligand channel as no ligand surface control. Human and cyno CD33-HSA proteins at 0.3 μM concentration in 3-fold dilution series of 5 concentrations flew in as analyte to bind to captured mAbs in the horizontal orientation. A buffer sample was also injected in the 6th channel to monitor the dissociation of captured mAb and baseline stability. […] The raw biding data were processed by double referencing after subtracting the response data from: 1) the inter-spot to correct for the non-specific interactions between the Ag and the empty chip surface; 2) the buffer channel to correct for baseline drifting due to the dissociation of captured mAb surface over time. The processed data at all antigen concentrations for each mAb were globally fit to a 1:1 simple Langmuir binding model to extract estimates of the kinetic (kₒₙ, koff) and affinity (Kd) constants.

[3] = molecular target: T3, Human CD33 ECD-HSA (human); experiment: as above
T3 construct: CD33 ECD fused at the C-terminus to monomeric HSA (C58S) and a six-histidine tag; also called C33W2; huCD33 ECD-HSA
Method: as §3

[4] = molecular target: T4, Human CD33 full length (human, UniProt P20138 18-364); experiment: flow cytometry on HEK293F cells expressing human CD33
T4 construct: also called huCD33
T4 sequence (P20138 18-364 limits assumed): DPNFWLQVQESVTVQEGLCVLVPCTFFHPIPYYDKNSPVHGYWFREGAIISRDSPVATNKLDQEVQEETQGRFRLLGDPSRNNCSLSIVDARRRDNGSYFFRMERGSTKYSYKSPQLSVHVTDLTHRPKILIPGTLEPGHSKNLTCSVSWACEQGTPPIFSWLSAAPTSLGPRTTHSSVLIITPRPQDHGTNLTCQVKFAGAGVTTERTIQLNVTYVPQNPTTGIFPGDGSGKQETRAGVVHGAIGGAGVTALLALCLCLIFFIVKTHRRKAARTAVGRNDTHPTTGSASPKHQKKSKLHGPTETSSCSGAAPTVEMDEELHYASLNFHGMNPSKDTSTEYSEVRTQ
Method: as §1, §2

[5] = molecular target: T5, human CD3 on human T cells (human, UniProt P07766 23-207); experiment: flow cytometry, Jurkat CD3+ (E6-1)
T5 construct: Native TCR-CD3 complex on cells; also called primary human T cells; human pan T cells
T5 sequence (P07766 23-207 limits assumed): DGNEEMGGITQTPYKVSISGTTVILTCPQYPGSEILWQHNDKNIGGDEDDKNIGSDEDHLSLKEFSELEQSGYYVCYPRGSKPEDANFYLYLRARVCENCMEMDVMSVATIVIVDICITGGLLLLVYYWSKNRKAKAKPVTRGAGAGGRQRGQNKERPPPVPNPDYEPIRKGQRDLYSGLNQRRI

[6] = molecular target: T6, cynomolgus CD3e/d complex on cells transiently transfected with pcDNA3.1-CD3e/d-cyn-mix (cynomolgus, UniProt Q95LI5 22-198; Q95LI8 22-171); experiment: CELISA, hybridoma supernatant
T6 construct: Tagged screening constructs
T6 sequence (Q95LI5 22-198 limits assumed, chain 1 of 2): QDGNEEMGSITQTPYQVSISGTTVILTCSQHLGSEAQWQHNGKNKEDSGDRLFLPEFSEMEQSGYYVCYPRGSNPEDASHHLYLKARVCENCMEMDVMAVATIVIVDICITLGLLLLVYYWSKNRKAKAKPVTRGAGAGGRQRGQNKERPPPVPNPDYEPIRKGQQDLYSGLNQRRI
T6 sequence (Q95LI8 22-171 limits assumed, chain 2 of 2): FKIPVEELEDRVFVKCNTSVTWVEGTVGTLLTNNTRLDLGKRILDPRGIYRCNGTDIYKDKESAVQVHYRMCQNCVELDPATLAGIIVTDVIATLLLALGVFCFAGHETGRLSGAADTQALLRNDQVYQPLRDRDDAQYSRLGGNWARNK
Method: (§4) Hybridoma supernatants from fusions BLW (with magnetic bead depletion of lymphocytes) and BLX (without magnetic bead depletion of lymphocytes) were analyzed a) by a cell-based ELISA (CELISA) on cells transiently transfected with human and cynomolgus cDNA cloned into screening vectors: pOPT-CD3e-hum-epsilon-TCE.OMT+pOPT-CD3d-hum-delta.OMT, 1:1 (pOPT-CD3e/d-hum-mix) and pcDNA3.1-CD3e-cyn-[…]+pcDNA3.1-CD3d-cyn-delta, 1:1 (pcDNA3.1-CD3e/d-cyn-mix). For CELISA negative control, non-transfected mammalian cells were incubated with hybridoma supernatants and detected with the secondary Bethyl antibody. For a CELISA transfection control, mammalian cells, transfected with the constructs described above, were detected with anti-tag antibody.

[7] = molecular target: T7, human CD3e/d complex on cells transiently transfected with pOPT-CD3e/d-hum-mix (human, UniProt P07766 23-126; P04234 22-171); experiment: CELISA, hybridoma supernatant
T7 construct: Tagged screening constructs
T7 sequence (P07766 23-126 limits assumed, chain 1 of 2): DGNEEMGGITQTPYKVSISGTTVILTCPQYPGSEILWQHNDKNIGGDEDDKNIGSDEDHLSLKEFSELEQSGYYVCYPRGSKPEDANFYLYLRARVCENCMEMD
T7 sequence (P04234 22-171 limits assumed, chain 2 of 2): as the sequence (Q95LI8 22-171 limits assumed, chain 2 of 2) above, with V5I, K15N, V20I, T32S, N33D, N34I, A64T, N74S, L83V, R141H counted along it
Method: as §4

Binder	MFI at 0 nM (background) [1] [MFI]	MFI at 0.6 nM [1] [MFI]	MFI at 6 nM [1] [MFI]	MFI at 60 nM [1] [MFI]	Kd [2] [nM]	koff [2] [s⁻¹]	kon [2] [M⁻¹ s⁻¹]	Kd [3] [nM]	koff [3] [s⁻¹]	kon [3] [M⁻¹ s⁻¹]	MFI at 0 nM (background) [4] [MFI]	MFI at 0.6 nM [4] [MFI]	MFI at 6 nM [4] [MFI]	MFI at 60 nM [4] [MFI]	% positive [5] [%]	geomean [5]	% positive [6] [%]	Rfu [6] [rfu]	% positive [7] [%]	Rfu [7] [rfu]
B1	104	22800	33300	41000	0.852	0.000403	473000	0.655	0.000411	627000	167	193000	404000	448000						
B2															72	199000 geometric mean fluorescence	66	320	127	867
B3															77	215000 geometric mean fluorescence	70	340	111	759
B4															53	148000 geometric mean fluorescence	47	230	101	689
B5															66	182000 geometric mean fluorescence	76	371	131	896
B6															53	148000 geometric mean fluorescence	47	230	101	689
B7															3	7500 geometric mean fluorescence	25	121	34	231
B8															72	199000 geometric mean fluorescence	66	320	127	867
